Measured values reported in the supplement of paper PMC10567573.
± gives the standard deviation.

Assay: protein stability index of a GFP-peptide fusion (GPS, HEK-293T) (PSI 1-6); higher = more stable
[1] = treatment: DMSO, c terminus: a fixed tail appended
[2] = treatment: MLN4924 1 uM, 8 h, c terminus: a fixed tail appended
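Also: 24-mer peptide tiles fused after GFP, lentivirally expressed, FACS-sorted into six equal bins by GFP/DsRed ratio, decoded by Illumina sequencing, PSI is the read-weighted mean bin number.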

Sequence | protein stability index [1] | protein stability index [2] | protein stability index (treatment: DMSO, c terminus: native) | protein stability index (treatment: MLN4924 1 uM, 8 h, c terminus: native)
MAEASATGACGEAMAAAEGSSGPA [SEPHS2] | 5.44 ± 0.2 | 5.3 ± 0.17 | – | –
MASVRIREAKEGDCGDILRLIREL [SAT2] | 3.01 ± 0.17 | 3.23 ± 0.37 | – | –
MAVRPSLPESGLLSVLQIAQQDLA [FANCE] | 3.29 ± 0.28 | 3.53 ± 0.35 | – | –
MCPPVSMRYEEEGMSYLYASWMYQ [TEX19] | 2.3 ± 0.082 | 2.11 ± 0.22 | – | –
MDDQGCPRCKTTKYRNPSLKLMVN [MNAT1] | 2.8 ± 0.16 | 3.21 ± 0.22 | – | –
MDSDMDYERPNVETIKCVVVGDNA [RHOBTB2] | 4.74 ± 0.21 | 4.87 ± 0.22 | – | –
MEAYLPKKNGLYLSLVLGNVNVTL [TMEM120A] | 3.28 ± 0.49 | 3.44 ± 0.35 | – | –
MEEDKLLSAVPEEGDATRDPGPEP [PSD2] | 5.54 ± 0.1 | 5.52 ± 0.16 | – | –
MELLTNNLKFITDPFVCRLRHLSP [OR4A15] | 2.17 ± 0.22 | 2.58 ± 0.38 | – | –
MEVPQPEPAPGSALSPAGVCGGAQ [CDC25B] | 5.25 ± 0.34 | 5.23 ± 0.33 | – | –
MFGFFFGRTPLIKLSPKKTWEGFI [CDS2] | 2.38 ± 0.48 | 2.35 ± 0.49 | – | –
MGKSASKQFHNEVLKAHNEYRQKH [GLIPR2] | 3.94 ± 0.27 | 3.96 ± 0.28 | – | –
MGNSHCVPQAPRRLRASFSRKPSL [PLEKHN1] | 3.66 ± 0.096 | 3.69 ± 0.11 | – | –
MKEPITKAEILESVIKNYEDHFPL [MAGEA10] | 3.98 ± 0.31 | 3.93 ± 0.38 | – | –
MKNEKLLSKASEPKYQLFVPQLVT [RNF180] | 2.69 ± 0.3 | 2.82 ± 0.24 | – | –
MKRQNVRTLSLIVCTFTYLLVGAA [KCNK9] | 3.36 ± 0.22 | 2.95 ± 0.37 | – | –
MLDHHPVAITVEVKQEEDIKPPPP [RAD54B] | 5.08 ± 0.22 | 5.19 ± 0.1 | – | –
MLGFRPYRFYFYMWKFVSPLCMAV [SLC6A17] | 2.27 ± 0.25 | 2.29 ± 0.68 | – | –
MLLFLSVPQPRPPGARTRAGAARV [FBXO33] | 2.31 ± 0.26 | 2.13 ± 0.21 | – | –
MPNVMTGTMGMAPLGNTPMMNQSM [CLINT1] | 3.68 ± 0.23 | 3.48 ± 0.27 | – | –
MPRHNYHKVAPLVQSLCAKHGIEY [FADS1] | 2.64 ± 0.36 | 2.5 ± 0.36 | – | –
MRDRHVNMHLNLRPFDCPVCNKKF [ZBTB22] | 2.99 ± 0.32 | 3.44 ± 0.55 | – | –

Sequence | protein stability index [1] | protein stability index [2] | protein stability index (treatment: DMSO, c terminus: native) | protein stability index (treatment: MLN4924 1 uM, 8 h, c terminus: native)
MRQFLRGLDFLHANCIVHRDLKPE [CDK4] | 2.21 ± 0.22 | 2.23 ± 0.13 | – | –
MTHQNVELFKELSINVMKQLIGSS [GMCL1] | 2.35 ± 0.21 | 2.37 ± 0.57 | – | –
MTQLSSTLARCAKDILGFAVMFFI [PKD2L1] | 2.39 ± 0.37 | 2.28 ± 0.42 | – | –
NAKLASDDFRSKYQTEQSLRLLVE [KRT34] | 3.16 ± 0.34 | 3.04 ± 0.49 | – | –
NDTNSFTVDCEPSDLFRLQEYNIP [CDS2] | 3.65 ± 0.16 | 3.74 ± 0.21 | – | –
NEGLMKWENRHEGVFKFLRSEAVA [ELF3] | 3.01 ± 0.11 | 3.09 ± 0.22 | – | –
NGMAIIRPPGHHAQHSLMDGYCMF [HDAC6] | 2.37 ± 0.17 | 2.21 ± 0.31 | – | –
NGPLGPSEASIASNLQAMSTQMFQ [SMG5] | 3.93 ± 0.18 | 3.95 ± 0.074 | – | –
NLEGNELQRHADEFLLDLGHHERS [FUT8] | 4.84 ± 0.062 | 4.83 ± 0.31 | – | –
NLPIIAKMAAVSKASGRFGLLQGT [SEPHS2] | 2.31 ± 0.18 | 2.25 ± 0.2 | – | –
NLQDTLEAASFLQILPVLDFCKVF [KLHL13] | 2.73 ± 0.35 | 2.63 ± 0.52 | – | –
NLRYGFTKEVMNKYKVHGKEILRT [PPEF2] | 2.63 ± 0.3 | 2.57 ± 0.31 | – | –
NMCGYHSQDRYEFSSHITRGEHRF [IKZF1] | 2.47 ± 0.24 | 2.55 ± 0.65 | – | –
NNQEEETEFKELDGLREALANLRG [CCDC89] | 4.71 ± 0.29 | 4.58 ± 0.4 | – | –
NPEEDEDQRNPAKESLETPSNGRI [SOAT1] | 5.76 ± 0.064 | 5.62 ± 0.077 | – | –
NRTLWRLDLAGNNIPGDVLRAVEQ [LRRC45] | 3.01 ± 0.6 | 3.51 ± 0.43 | – | –
NSDRMTHCGVLEFVADEGICYLPH [UFD1] | 2.87 ± 0.17 | 2.68 ± 0.36 | – | –
NSELVQSGKSEISELRRTMQALEI [KRT17] | 3.94 ± 0.18 | 3.94 ± 0.42 | – | –
NSVSSHASSPYISSVQSYPGSASL [DLX1] | 3.65 ± 0.19 | 3.75 ± 0.23 | – | –
NTQTEELNQQVVSSSEQLQCCQTE [KRT36] | 5.49 ± 0.28 | 5.51 ± 0.081 | – | –
NVHFKEETVKLFICELVMALDYLQ [STK32A] | 2.81 ± 0.7 | 2.85 ± 0.62 | – | –
NVLHVARLPNRQLISCSEDGSVRI [WDR41] | 2.99 ± 0.17 | 3.12 ± 0.32 | – | –

Sequence | protein stability index [1] | protein stability index [2] | protein stability index (treatment: DMSO, c terminus: native) | protein stability index (treatment: MLN4924 1 uM, 8 h, c terminus: native)
NVLLFKKQNPGKFCLLSCGILTFL [RETREG3] | 2.43 ± 0.69 | 2.89 ± 0.73 | – | –
NVPSSSLPAQPNRKPGMSSTARRS [CHMP4C] | 4.9 ± 0.32 | 4.99 ± 0.13 | – | –
NVVVHDWLYYYAYKDFLWFFSKRF [SOAT1] | 2.18 ± 0.35 | 2.17 ± 0.44 | – | –
NWIVPGKFLAFSGPHPKSKIENGY [CDC14A] | 2.32 ± 0.36 | 2.61 ± 0.48 | – | –
NWRRKHEEFIATIRAAKGLDQALK [ZC2HC1A] | 2.71 ± 0.18 | 2.78 ± 0.24 | – | –
NYTATVRGLRGPNLTSPASITFTT [TNXB] | 2.66 ± 0.23 | 2.79 ± 0.41 | – | –
PALKIYEYHVKPLQTKHLKNNSS [SAMD13] | – | – | 3 ± 0.15 | 3.04 ± 0.2
PAPLLVLCPSRAELDRWLYHLEKQ [PLEKHN1] | 2.62 ± 0.11 | 2.17 ± 0.29 | – | –
PAQLSEDITRYYLCLQLRDDIVSG [EPB41L3] | 2.3 ± 0.24 | 2.43 ± 0.35 | – | –
PAVRQLLPCARVQICRAQGLETLF [ZSWIM9] | 2.19 ± 0.49 | 2.5 ± 0.64 | – | –
PAYVGPEILSSRASYSGKAADVWS [TRIB3] | 3.09 ± 0.2 | 3.18 ± 0.19 | – | –
PDCLRACQEQIEALLESSLRQAQQ [CCND1] | 3.23 ± 0.34 | 3.59 ± 0.38 | – | –
PDEGSDLFYDDYYEDGEVEEEADS [CDC34] | 5.36 ± 0.32 | 5.66 ± 0.25 | – | –
PDKESMYYPRVQHYRELLDSLPMD [GDAP1] | 3.38 ± 0.23 | 3.48 ± 0.35 | – | –
PDVVVRSFMTWLRSYIKLFQAPCQ [MED27] | 2.06 ± 0.19 | 2.12 ± 0.28 | – | –
PEAAAAQLRATAGSLILPPGPGGT [FCHO1] | 4.26 ± 0.41 | 4.26 ± 0.53 | – | –
PEASHLRFRRFRFQEAAGPREALS [ZNF263] | 3.15 ± 0.42 | 3.31 ± 0.51 | – | –
PEVEVQVKRRRTASLSNQECQLYP [SNURF] | 4.77 ± 0.2 | 4.84 ± 0.17 | – | –
PEYREWNPELIKPKKLLNPVKASR [FAM107A] | 3.89 ± 0.13 | 4.09 ± 0.39 | – | –
PGGPGAMTESLEASEFLEQSMSQT [RSPH3] | 5.27 ± 0.28 | 5.16 ± 0.17 | – | –
PGNPSLHSRFVELSEAYRVLSREQ [DNAJC4] | 3.68 ± 0.44 | 3.81 ± 0.21 | – | –
